From patent US10323078B2, “Isolated peptides and fragments thereof from fibrinogen for use as drugs, particularly in skin inflammatory diseases” (Universite Paris Descartes, priority 2015, dated 2019)

Legend:
[1] = system: Pfg; assay: Binding of biotinylated Pfg to immobilized fibrinogen (polystyrene plate); parameters: species or system Propionibacterium acnes; conditions: various quantities of fibrinogen immobilized; biotinylated Pfg 0.1 μg/ml, 2 h at 23° C.
Description: FIG. 5: Binding of P. acnes surface proteins to fibrinogen. (A) Various quantities of human fibrinogen (hFg) and bovine fibrinogen (bFg) were immobilized onto a 96-well polystyrene plate at 4° C. for 18 h and incubated with biotinylated Pfg at 0.1 μg/ml for 2 h at 23° C. Bovine serum albumin (BSA) was used as negative control. Bound material was detected by using the HRP-streptavidin conjugate. Peroxidase activity was measured by using the ABTS substrate at 405 nm. Proteins (10 μg per lane) were separated by 10% SDS-PAGE and detected by (B) Commassie blue staining, and transferred to nitrocellulose membrane and incubated with (C) HRP-streptavidine alone, and (D) biotinylated Pfg (0.1 μg/ml). Lanes 1: molecular weight standards. Lane 2: BSA. […]
To characterize the interaction between P. acnes and ligands, we used biotinylated molecules in quantitative and qualitative assays. […] For quantitative analysis, unlabeled protein were diluted into 50 mM carbonate-bicarbonate, pH 9.6 buffer to yield a protein concentration ranging from 0.01 to 50 μg/ml, and then immobilized to 96-well polystyrene plates at 4° C. overnight. […] After washing, bound peroxidase was detected using the chromogenic peroxidase substrate ABTS. […] Binding activity was detected by incubating the membranes with 20 ml of PBT containing biotinylated proteins (0.1 μg/ml) for 2 h at room temperature followed by three washes with PBT. […]

[2] = system: Pfg; assay: Western ligand blot with biotinylated Pfg; format: binding, Propionibacterium acnes; conditions: 10 μg per lane, 10% SDS-PAGE; biotinylated Pfg 0.1 μg/ml
Description: FIG. 5: Binding of P. acnes surface proteins to fibrinogen. (A) Various quantities of human fibrinogen (hFg) and bovine fibrinogen (bFg) were immobilized onto a 96-well polystyrene plate at 4° C. for 18 h and incubated with biotinylated Pfg at 0.1 μg/ml for 2 h at 23° C. Bovine serum albumin (BSA) was used as negative control. Bound material was detected by using the HRP-streptavidin conjugate. Peroxidase activity was measured by using the ABTS substrate at 405 nm. Proteins (10 μg per lane) were separated by 10% SDS-PAGE and detected by (B) Commassie blue staining, and transferred to nitrocellulose membrane and incubated with (C) HRP-streptavidine alone, and (D) biotinylated Pfg (0.1 μg/ml). Lanes 1: molecular weight standards. Lane 2: BSA. Lane 3: hFg. Lane 4: bFg.
FIG. 8: Cloning of Bß human fibrinogen fragments and binding with Pfg. (A) Cloning and expression of recombinant human Bß fibrinogen fragments Fg1, Fg2, Fg3 and Fg4. Fibrinogen fragments were obtained by RT-PCR and expression plasmids were constructed as described in Materials and Methods. (B) GST-fused proteins were expressed in E. coli, fractionated by 12.5% SDS-PAGE, and detected by Coomassie blue staining (B), and incubated with biotinylated Pfg (0.1 μg/ml) as described in Materials and Methods (C).
To characterize the interaction between P. acnes and ligands, we used biotinylated molecules in quantitative and qualitative assays. In a first set of assays, ECM ligands (fibrinogen, collagens I, IV, VI and VIII) were used as labelled proteins with biotin. In a second set of assays, P. acnes surface proteins (total extract and purified Pfg) were biotinylated. For quantitative analysis, unlabeled protein were diluted into 50 mM carbonate-bicarbonate, pH 9.6 buffer to yield a protein concentration ranging from 0.01 to 50 μg/ml, and then immobilized to 96-well polystyrene plates at 4° C. overnight. The wells were rinsed three times with 0.2 ml of PBS containing 0.05% Tween-20 (PBS-Tween). Biotinylated proteins (0.01 to 16 μg/ml in PBS-Tween) were added to the wells and incubated at room temperature for 1 h. The wells were rinsed three times with 0.2 ml of PBS-Tween. Peroxidase conjugated to streptavidin (0.5 μg/ml in PBS-Tween) was added and incubated for 30 min at room temperature. After washing, bound peroxidase was detected using the chromogenic peroxidase substrate ABTS. For qualitative analysis, unlabelled protein (10-75 μg per lane) were separated by SDS-PAGE and then transferred to nitrocellulose membranes (0.45 μm pore size), as described previously (Towbin, 1979). Membranes were then saturated overnight at 4° C. in PBS containing 5% BSA, 0.05% Tween-20 (PBT buffer). Binding activity was detected by incubating the membranes with 20 ml of PBT containing biotinylated proteins (0.1 μg/ml) for 2 h at room temperature followed by three washes with PBT. Bound biotinylated proteins were detected by incubating the membrane with peroxidase conjugated to streptavidin (0.5 μg/ml in PBT) for 1 h at room temperature. After washing, bound peroxidase activity was detected using 3,3′-diaminobenzidine in the presence of CoCl2 and H2O2 (Harlow and Lane, 1988).
Since it was shown that Pfg is recognized by fibrinogen, this ECM ligand was used to analyze the nature of this interaction. First it was analyzed the ability of fibrinogen to be recognized by purified Pfg (FIG. 5). Human and bovine Fg (hFg, bFg) were immobilized to polysterene plate and the binding activity of biotinylated Pfg was measured. […] It has been shown that fibrinogen is a glycoprotein containing both N- and O-linked glycans (Debeire 1985; Reid Townsend 1982; L'Hôte 1996). […] In parallel, deglycosylation was assessed by visualization of a shift in the mobility after electrophoresis separation and Coomassie blue staining (FIG. 6A, lanes 3 and 5) and also by using the RCA-I plant lectin able to recognize ß-linked galactosyl residues in terminal position (FIG. 6C) (Green, 1987). […]

[3] = system: P. acnes 6919 strain; assay: Adhesion assay, biotinylated P. acnes binding to HaCaT keratinocytes; format: cell-based, Propionibacterium acnes; conditions: P. acnes 6919 pre-treated with whole fibrinogen 0.01 to 0.5 mM, 1 h at 37° C.
Description: FIG. 12: Dose-dependent inhibition of P. acnes binding to keratinocytes. Biotinylated P. acnes 6919 strain at concentrations adjusted to 0.1 of absorbance at 600 nm was pre-treated with whole human (dark gray bar) and bovine (light gray bar) fibrinogen at the concentrations ranging from 0.01 to 0.5 mM and incubated 1 h at 37° C. with the human HaCaT keratinocyte cell line. After removal of unbound bacteria, adhesion activity was detected at 410 nm. Data are means±S.D. of three separate experiments. Statistical significance is indicated by * (P<0.05), ** (P<0.01), *** (P<0.001), and **** (P<0.0001), respectively.
The bacterial suspension was adjusted at 600 nm to the desired concentration, pretreated with peptides Fg1 and Fg2 at the final concentration ranging from 0.87 to 7 μM for 1 h at 37° C. and deposited on the previously saturated cells with a solution of PBS SVF 2% for 2 h. After incubation for 1 h at 37° C., unbound bacteria are removed by 3 washes with PBS and fixed bacteria are detected by a streptavidin-peroxidase solution of 0.5 μg/ml for 30 min.
Whole P. acnes bacteria are labelled by biotinylation, pre-treated or not with the peptides and contacted with the various cell lines. After removal of the unfixed bacteria, the adhesion activity was measured spectrophotometrically by using the streptavidin-peroxidase conjugate and a chromogenic substrate. […]

B1: bovine fibrinogen: purified commercial bovine fibrinogen (Sigma) (protein)
chain 1: EDGSDPPSGDFLTEGGGVRGPRLVERQQSACKETGWPFCSDEDWNTKCPSGCRMKGLIDEVDQDFTSRINKLRDSLFNYQKNSKDSNTLTKNIVELMRGDFAKANNNDNTFKQISEDLRSRIEILRRKVIEQVQRIKVLQKNVRDQLVDMKRLEVDIDIKIRSCKGSCSRALEHKVDLEDYKNQQKQLEQVIAINLLPSRDIQYLPLIKMSTITGPVPREFKSQLQEAPLEWKALLEMQQTKMVLETFGGDGHARGDSVSQGTGLAPGSPRKPGTSSIGNVNPGSYGPGSSGTWNPGRPEPGSAGTWNPGRPEPGSAGTWNPGRPEPGSAGTWNPGRPEPGSAGTWNPGRPEPGSAGTWNTGSSGSSSFRPDSSGHGNIRPSSPDWGTFREEGSVSSGTKQEFHTGKLVTTKGDKELLIDNEKVTSGHTTTTRRSCSKVITKTVTNADGRTETTKEVVKSEDGSDCGDADFDWHHTFPSRGNLDDFFHRDKDDFFTRSSHEFDGRTGLAPEFAALGESGSSSSKTSTHSKQFVSSSTTVNRGGSAIESKHFKMEDEAESLEDLGFKGAHGTQKGHTKARPARGIHTSPLGEPSLTP
chain 2: QFPTDYDEGQDDRPKVGLGARGHRPYDKKKEEAPSLRPVPPPISGGGYRARPATATVGQKKVERKPPDADGCLHADPDLGVLCPTGCKLQDTLVRQERPIRKSIEDLRNTVDSVSRTSSSTFQYITLLKNMWKGRQNQVQDNENVVNEYSSHLEKHQLYIDETVKNNIPTKLRVLRSILENLRSKIQKLESDVSTQMEYCRTPCTVTCNIPVVSGKECEKIIRNEGETSEMYLIQPEDSSKPYRVYCDMKTEKGGWTVIQNRQDGSVDFGRKWDPYKQGFGNIATNAEGKKYCGVPGEYWLGNDRISQLTNMGPTKLLIEMEDWKGDKVTALYEGFTVQNEANKYQLSVSKYKGTAGNALIEGASQLVGENRTMTIHNSMFFSTYDRDNDGWKTTDPRKQCSKEDGGGWWYNRCHAANPNGRYYWGGAYTWDMAKHGTDDGVVWMNWQGSWYSMKKMSMKIRPYFPEQ
chain 3: YVATRDNCCILDERFGSYCPTTCGIADFLNNYQTSVDKDLRTLEGILYQVENKTSEARELVKAIQISYNPDQPSKPNNIESATKNSKSMMEEIMKYETLISTHESTIRFLQEVYNSNSQKIVNLRDKVVQLEANCQEPCQDTVKIHDVTGRDCQDVANKGAKESGLYFIRPLKAKQFLVYCEIDGSGNGWTVFQKRLDGSLDFKKNWIQYKEGFGHLSPTGTGNTEFWLGNEKIHLISTQSSIPYVLRIQLEDWNGRTSTADYASFKVTGENDKYRLTYAYFIGGDAGDAFDGYDFGDDSSDKFFTSHNGMQFSTWDSDNDKYDGNCAEQVGIGWWMNKCHAGHLNGVYYQGGTYSKTSTPNGYDNGIIWATWKSRWYSMKKTTMKIIPLNRLAIGEGQQHQLGGAKQVGVEHHVEIEYD
Binding of biotinylated Pfg to immobilized fibrinogen [1]: dose-dependent
Recognition by biotinylated Pfg after electrophoretic separation of fibrinogen [2]: recognized by Pfg
Inhibition of adhesion of P. acnes to keratinocytes [3]: able to inhibit the adhesion
